{"source": "patent US20060078550", "proteins": {"B1": {"name": "recombinant His-tagged porcine fgl2 protein generated by pfgl2bv infection of insect cells (protein)", "chain": "MKLKLSNWCWLSSAVLAAYGFLVVANNETEEIKDEAAKDACPVRLESRGKCEEVGGCPYQVNLPPLTLQLPKQFGRIEEVFKEVQNLKEIVNSLKKTCQDCRLQADDNRDPGRNGLLSPGTGAPGEADDSRVRELENEVNKLSSDLKNAKEEIDGLQGRLEKLSLVNMNNIENYVDNKVANLTFAVNSLDGKCSSRCPSQEQIQSRPVQHLIYKDCSEYYTIGKRSSEIYRVTPDPKNSSFEVYCDMETMGGGWTVLQARLDGSTNFTRTWRDYKVGFGNLRREFWLGNDKIHLLTKSKDMILRIDLEDFNGIKLYALYDHFYVANEFLKYRLHIGNYNGTAGDALRFSKHYNHDMKYFTTPDRDNDRYPSGNCGLYYSSGWWFDACLSANLNGKYYNQKYRGVRNGIFWGTWPGISEAQPGGYRSSFKEAKMMIRPKYFKP"}}, "target": "human prothrombin, P00734"}
{"protein": "B1", "values": [{"measurement": "thrombin activity (chromogenic substrate Chromozym TH, change in OD 405 nm over time)", "value": "A significant level of thrombin activity was generated by pfgl2bv-infected cell lysates in contrast to wild-type baculovirus-infected and uninfected controls"}]}
